Data taken from the nanobody polyreactivity screen of Harvey et al. (2022).

Test: yeast display, Sf9 membrane polyspecificity reagent, FACS + sequencing; frameworks hold sequencing errors
Outline: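 Nanobodies came from a synthetic yeast display library in Saccharomyces cerevisiae BJ5465, induced with galactose for 36–48 hours and stained for 1 hour at 4 °C with 10% biotinylated, detergent-solubilized Sf9 membrane reagent. Cells were enriched on streptavidin microbeads and then FACS-sorted, with low and high (top ~1%) gates set on anti-HA fluorescence for expression and streptavidin fluorescence for reagent binding. Each polyreactivity label reflects the gate a clone came from. Genes were amplified by colony PCR, sequenced by MiSeq 2 × 250 and filtered by CDR length.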

| Sequence | polyreactivity (PSR sort gate) |
| --- | --- |
| QVQLVESAGGLVQAGGSLPLSCAASGRTFQTNLMGWYRQAPGKERELVAAITLSGGSTNYADSVKVRFTISRDNAKKTVYLQMNSLKPEDTAVYYCNAERRYRHQLTPHYEYDYWGKGTQVTVSS | low polyreactivity |
| QVQLVESAGGLVQAGGSLRLSCAASGFIFPTYAMGWYRQAPGKERELVAAITTGGGSTYYADSVKGRFTISRDNAKNTVYLQMNSLKPEDTAVYYCAAEYVAQAGYGEDYWGQGTQVTVSS | low polyreactivity |
| QVQLVESAGGLVQAGGSLRLSCAASGFIFRYNTMGWYRQAPGKERELVATINRSGGSTYYADSVKGRFTISRDNAKNTVYLQMNSLKPEDTAVYYCAAVSLQPYYIAGATWDGDYWGQGTQVTVSS | high polyreactivity |
| QVQLVESAGGLVQAGGSLRLSCAASGFIFSRNAMGWYRQAPGKERELVAAISGTGGRTYYADSVKGRFTLSRDNAKNTVYLQMNSLKTEDTAVYYCAADKRIGGFGYWGQGTQVTVSS | high polyreactivity |
| QVQLVESAGGLVQAGGSLRLSCAASGFTFRSNAIGWYRQAPGKQRELVAAITSRGGSTYYADSVKGRFTISRDNAKNTVYLQMNSLKPVDTAVYYCAAEGRSRKFDYWGQGTQVTVSS | high polyreactivity |
| QVQLVESAGGLVQAGGSLRLSCAASGFTFYGYAMGAYSQAPGKERELVAAITSGGSTNYADAVKGRFTISRDNAKNTVYVQLNSLKPEDTAVYHCAAVWVANTARYSDTFGYWGQGTQVTVSS | high polyreactivity |
| QVQLVESAGGLVQAGGSLRLSCAASGITFNDNAMGGYRQAPGKERELVAAINSGNGTDYEDSVKGRFTISRDNAKNTVYLQMNSLKPEDTAVYYCATEGYVQGDLGYLYTRYAFYYWGQGTQVTVSS | low polyreactivity |
| QVQLVESAGGLVQAGGSLRLSCAASGLTQASYAMGWYRQAPGKERELVAAISRRSGRTYYADSVKGRFTISRDNAKNTVYLQMNSLKPVDTAVYYCNRGYTAQVYTEFDYWGQGTQVTVSS | low polyreactivity |
| QVQLVESAGGLVQAGGSLRLSCAASGLTYYFYPMGWYRQAPGKETELVAAINYDDGSTYYADSVKGRFTISRDNAKNTVYLQMNSLKPEDTAVYYCAADRDFRTPRLYYWGQGTQVTVSS | low polyreactivity |
| QVQLVESAGGLVQAGGSLRLSCAASGNIFSYYAMGWYRQAPGKERELVAAISRRGTNTYYADSVKGRFTISRDNAKNTVYLQMKSLKPEDTAVYYCARYGPYQSSYHYDYWGQGTQVTVSS | high polyreactivity |
| QVQLVESAGGLVQAGGSLRLSCAASGNTFATYAMGWYRQAPGKERELVAAITWTGGRTRYADSVKVRFTISRDNAKNTVYLPMNSLKPEDTAVYYCAAKRYDTTYDSWGQGTQVTVSS | high polyreactivity |
| QVQLVESAGGLVQAGGSLRLSCAASGRIFSAYAMRWYRQARGKERQLVAAITWSGANTDYADSVKGRFTISRDNAKNTVYLQMTSLKPEDTAVYYCNASFGRDSAYDYWGQGTQVTVSS | low polyreactivity |
| QVQLVESAGGLVQAGGSLRLSCAASGRIFSFNAMGWDRQAPGKERELVATIRTDGTTNYADSVKGRFTISRDNAKNTVYLQMNSLKPEDTAVYYCATDSGWSTYDYWGQGTQVTVSS | high polyreactivity |
| QVQLVESAGGLVQAGGSLRLSCAASGRTFKYYAMGWYRQAPGKERELVAAISRSGGSTYADSVKGRFTISRDNAKNTVYLQMNSLKPDETAVYYCAAYSGVGYLWFDYWGQGTQVTVSS | low polyreactivity |
| QVQLVESAGGLVQAGGSLRLSCAASGRTFVHYAIGWYRPAPAKERELVAAISWSGGSTYYADSVKGRFTISRDNAKNTGYLQMNSLKPEDTAVYYCNAGGFAPGRYGEFDYWGQGTQVTVSS | low polyreactivity |
| QVQLVESAGGLVQAGGSLRLSCAASGSIFGLYAMGWSRQAPGKDRELVAAITSAGSTYYADSVKGRFTISRDNAKNTVYLQMNTLKPEDTAVYYCAARGFYQFPSYYYWGKGTQVTVSS | high polyreactivity |

| Sequence | polyreactivity (PSR sort gate) |
| --- | --- |
| QVQLVESAGGLVQAGGSLRLSCAASGSIFHYYAMGWYRQAPGKERELVAAINSSGGSRTYYADSVKGRFTISRDKAKNTVYLQMNSLKPEDTAVYYCAADYRVVWRAYDYWGQGTQVTVSS | low polyreactivity |
| QVQLVESAGGLVQAGGSLRLSCAASGSIFYRNVMAWYRQAPGQERELVAAITWSGGSTYYADSVKGRFTISRDNAKNTVYLQMNSLKPEDTAVYFCAAASKATYRGKVSGYYYWGQGTQVTVSS | high polyreactivity |
| QVQLVESAGGLVQAGGSLRLSCAASGSNDTNAMGWYRQEPWKERELVADITSGTPTYADSVKGRFTISRDNAKNTVFLQMNSLKPEDTAVYYCAADIPPWCGDYWGQGTQVTVSS | low polyreactivity |
| QVQLVESAGGLVQAGGSLRLSCAASGSSLGYYAMGWYRQAPGKERELVADIDNGTSTYYADSVKGRFTISRDNAKNTVYLQMNSLKQEDTAVYYCAADYYSRYLQSYYWGQGTQVTVSS | low polyreactivity |
| QVQLVESAGGLVQAGGSLRLSCAASGSTFGANAMGWYRQAPGKEREYVAAISRSGVRTYYADSVKGRFTISRDNAKNTVYLQMNSLKPEDTAVYYCAADGYWWTYTRYDYWGQGTQVTVSS | low polyreactivity |
| QVQLVESAGGLVQAGGSLRLSCAASGYTFKLYAMGWSRQAPGKERELVAAIRQRGGTTYYADSVKGRVTISRDNAKNTVYLQMNSLKPEDTAVYYCAVRFYLPNANGGYYYWGQGTQVTVSS | high polyreactivity |
| QVQLVESAGGLVQAGGSLRLSCAPSGRTFYGNAMGWYRQAPGTERELVAAISSRGGSTYYADSVKGRFTISRDNANNTVYLQMNSLKPEDTAVYYCNVANGLSQVYRYNYWGQGTQVTVSS | high polyreactivity |
| QVQLVESAGGLVQAGGSLRLSCASSGFTFKANAMGWYRQAPGKERELVAAISRRGSSTYYADSVKGRFTISRDNAKNTVYLQMNSLKPEDTAVYYCNTKPRAGRTKLGYWGQGTQVTVSS | high polyreactivity |
| QVQLVESAGGLVQAGGSLRLSCPASGLTFGSYALGWYRQAPGKEREFVAAISWRGGSTYYADSVKGRFTISRDNAKNTVYLQMNSLKPEDTAVYYCAAPVTYGGSPYKYYYWGQGTQVTVSS | high polyreactivity |
| QVQLVESAGGLVQAGGSLRLSCPASGRIFSIYGMGWYRQAPGKERELVAVISGSVGITYYADSVKGRFTISRDNAKNTVYLQMNSLKPEDTAVYFCNAKVRRRKYDYWGQGTQVTVSS | high polyreactivity |
| QVQLVESAGGLVQAGGSLRLSCPASGRTFFPYAMGWYRQPPGQEREFVAAITNTDDSTYYADSVKGRFTISRDNAKNTVYLQMNSLKPEDTAVYYCNAGDTQIRFYYWGQGSQVTVSS | low polyreactivity |
| QVQLVESAGGLVQAGGSLRLSFAASGFTFAKYAMGWYRQAPGKERELVAGISRRGGSTYYADSVKGRFTISRDNAKNTVYLQMNSLKPEDTAVYYCNADLVRPGYYRYDYWGQGTQVTVSS | high polyreactivity |
| QVQLVESAGGLVQAGGSLRLTCAASGLTFRVFAMGWYRQAPGKERELVAAISSRGGSTYYADSVKGRFTISRDNAKYTVYLQMNSLKPEDTAVYDCYARGQGGYWGQGTQVTVSS | high polyreactivity |
| QVQLVESAGGLVQAGGSLRLTCAASGRTYFPYAMGLYRQAPGKERELVAAITWSATTTYYADSVKGRFTISRDNAKNTVYLQMISLKPEDTAVYYCNARGDYWGQGTQVTVSS | low polyreactivity |
| QVQLVESAGGLVQAGGSLSLSCAASGGTFSTNAMGWYRQAPGQERELVAAISLSGGRTYADSVKGRFTISLDNAKNTVYLQMNSLKPEDTAVYYCNADSAGITRARSELDYWGQGTQVTVSS | low polyreactivity |
| QVQLVESAGGLVQAGGSLSLSCAASGSTFASYAMGWYRQAPGKEREFVAAITRSGTSTYYADSVKGRFTISRDNAKNTVYLQMNSLKPEDTAVYYCNATRRTVGFGYWGQGTQVTVSS | high polyreactivity |
